The values below come from patent US20230203100A1, “COMPOSITIONS INCLUDING MULTI-AGONIST PEPTIDES AND METHODS OF MANUFACTURE AND USE” (Pep2Tango Therapeutics Inc., priority 2021, published 2023).

Where two headings read alike, the source gives them in different places. Starred links: 1 amine or outer side, 2 acyl side, 3 side chain; linkers in the order of their positions; H or OH if unused. Non-standard residues stand in square brackets, D forms with d. Groups on a side chain read outwards from the residue. γGlu = O=C(O)[C@H](CCC(=O)[*:2])N[*:1]; C(:O)(CH2)nR3 = not defined here; Aib = CC(C)(N)C(=O)O

For series [1] the following is noted: in vivo; cited from earlier work.
The conditions of series [2]: cited from earlier work.
The target of series [3] is Human GLP-1 receptor (human) (UniProt P43220).
Series [4] concerns the target T1, Human calcitonin receptor (human, UniProt P30988).
T1 sequence: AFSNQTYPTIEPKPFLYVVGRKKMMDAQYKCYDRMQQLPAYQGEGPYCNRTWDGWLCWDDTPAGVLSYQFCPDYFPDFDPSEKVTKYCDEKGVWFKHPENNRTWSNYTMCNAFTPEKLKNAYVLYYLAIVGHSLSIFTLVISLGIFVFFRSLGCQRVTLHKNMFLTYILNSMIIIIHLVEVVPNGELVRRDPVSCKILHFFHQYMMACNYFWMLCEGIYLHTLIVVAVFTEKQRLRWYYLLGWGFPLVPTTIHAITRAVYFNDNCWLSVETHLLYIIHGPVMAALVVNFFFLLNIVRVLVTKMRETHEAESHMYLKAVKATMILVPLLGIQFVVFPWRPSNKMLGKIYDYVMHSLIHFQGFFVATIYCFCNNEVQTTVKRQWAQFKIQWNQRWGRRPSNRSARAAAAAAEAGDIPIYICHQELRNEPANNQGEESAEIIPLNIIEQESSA
Description: cell-based or functional assay.

For series [5], the target named is T2, Human AMY3 receptor (CT/RAMP3) (human, UniProt P30988).
T2 sequence 1: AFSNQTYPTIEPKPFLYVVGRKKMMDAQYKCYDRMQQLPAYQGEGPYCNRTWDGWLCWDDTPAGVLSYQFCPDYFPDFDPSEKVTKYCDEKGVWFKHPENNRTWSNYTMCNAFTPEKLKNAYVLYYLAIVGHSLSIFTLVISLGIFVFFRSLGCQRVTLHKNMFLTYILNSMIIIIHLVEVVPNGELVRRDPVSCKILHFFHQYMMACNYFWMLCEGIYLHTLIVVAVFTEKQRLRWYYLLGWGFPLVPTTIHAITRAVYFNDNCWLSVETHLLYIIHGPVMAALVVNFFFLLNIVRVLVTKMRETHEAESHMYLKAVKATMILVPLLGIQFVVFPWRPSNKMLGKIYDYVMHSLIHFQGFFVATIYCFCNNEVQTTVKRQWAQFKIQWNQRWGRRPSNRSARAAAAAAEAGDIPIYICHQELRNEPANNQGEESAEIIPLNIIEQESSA
T2 sequence 2: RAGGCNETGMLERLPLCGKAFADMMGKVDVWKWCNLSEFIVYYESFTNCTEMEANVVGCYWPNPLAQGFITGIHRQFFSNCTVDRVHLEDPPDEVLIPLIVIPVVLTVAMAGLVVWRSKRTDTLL
Description: cell-based or functional assay.

Another series deals with T3, Human GIP receptor (human, UniProt P48546).
T3 sequence: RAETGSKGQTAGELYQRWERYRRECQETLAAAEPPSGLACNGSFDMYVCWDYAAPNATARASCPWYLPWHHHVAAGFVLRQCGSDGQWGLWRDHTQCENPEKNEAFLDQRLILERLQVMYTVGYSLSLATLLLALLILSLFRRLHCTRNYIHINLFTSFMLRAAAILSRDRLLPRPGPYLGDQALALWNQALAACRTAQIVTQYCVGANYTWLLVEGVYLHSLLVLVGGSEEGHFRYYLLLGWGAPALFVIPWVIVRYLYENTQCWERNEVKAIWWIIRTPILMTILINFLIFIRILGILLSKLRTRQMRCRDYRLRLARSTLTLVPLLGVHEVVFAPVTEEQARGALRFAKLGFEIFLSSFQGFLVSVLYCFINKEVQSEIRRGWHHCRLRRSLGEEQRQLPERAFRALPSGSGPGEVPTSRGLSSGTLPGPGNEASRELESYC
The experiment in a line: cell-based or functional assay.

In the next series the target is Human GLP-1 receptor (human, UniProt P43220). Description: cell-based or functional assay.
Series [6] in a line: Acute food intake in lean mice after single s.c. administration. Type of series: in vivo, C57BL/6j male mice. Particulars: 50 nmoles/kg single s.c., time period not given, mean±SEM. Here is the method:
(§1) Differences were considered statistically significant at p<0.05. Data analysis was carried out with GraphPad software (GraphPad Prism).

Series [7] in a line: Blood glucose after single s.c. administration in non-fasted mice. Type of series: in vivo. The conditions noted are these: 50 nmoles/Kg single s.c., mean±SEM. Here is the method:
as §1

A short description of series [8]: Acute food intake in lean rats after single s.c. administration. The series is classed as in vivo, Sprague Dawley male rats. The conditions noted are these: 50 nmoles/kg single s.c., mean +/- SEM.
Description: (§2) Sprague Dawley male rats (5 weeks of age) were purchased from Charles River (Spain) and single housed for individual registration of food consumption. […] Rats were fed ad libitum a standard rodent chow diet (CHD) (A04, U8220G10R, SAFE).
(§3) For all experimental groups, food was replaced immediately after lights were turned off.
(§4) Food intake was measured at different time-intervals post-injection up to 72 h using a precision balance. Cumulative food intake was calculated for the indicated time-periods. Body weight was measured at the indicated time-periods. Mean accumulated food intake in each dose group was compared to vehicle and reported as a percentage of mean food intake in the vehicle group, which was defined as 100%.
(§5) All data shown are the mean ± standard error (SEM).
Series [9] can be described thus: Body weight in lean rats after single s.c. administration. Type of series: in vivo, Sprague Dawley male rats. The conditions noted are these: mean±SEM.
Description: as §2, §3, §4, §5

On to glucagon-like peptide-1 [GLP-1], for which, in series [1], the “metabolic clearance rate of active GLP-1” value was 12 to 13 min.

As for `CC[C@H](C)[C@H](NC(=O)[C@H](CO)NC(=O)[C@H](Cc1ccc(O)cc1)NC(=O)[C@H](CC(=O)O)NC(=O)[C@H](CO)NC(=O)[C@@H](NC(=O)[C@H](Cc1ccccc1)NC(=O)[C@@H](NC(=O)CNC(=O)[C@H](CCC(=O)O)NC(=O)[C@H](C)NC(=O)[C@@H](N)Cc1ccc(O)cc1)[C@@H](C)O)[C@@H](C)CC)C(=O)N[C@@H](C)C(=O)N[C@@H](CCSC)C(=O)N[C@@H](CC(=O)O)C(=O)N[C@@H](CCCCN)C(=O)N[C@H](C(=O)N[C@@H](Cc1c[nH]cn1)C(=O)N[C@@H](CCC(N)=O)C(=O)N[C@@H](CCC(N)=O)C(=O)N[C@@H](CC(=O)O)C(=O)N[C@@H](Cc1ccccc1)C(=O)N[C@H](C(=O)N[C@@H](CC(N)=O)C(=O)N[C@@H](Cc1c[nH]c2ccccc12)C(=O)N[C@@H](CC(C)C)C(=O)N[C@@H](CC(C)C)C(=O)N[C@@H](C)C(=O)N[C@@H](CCC(N)=O)C(=O)N[C@@H](CCCCN)C(=O)NCC(=O)N[C@@H](CCCCN)C(=O)N[C@@H](CCCCN)C(=O)N[C@@H](CC(N)=O)C(=O)N[C@@H](CC(=O)O)C(=O)N[C@@H](Cc1c[nH]c2ccccc12)C(=O)N[C@@H](CCCCN)C(=O)N[C@@H](Cc1c[nH]cn1)C(=O)N[C@@H](CC(N)=O)C(=O)N[C@H](C(=O)N[C@H](C(=O)N[C@@H](CCC(N)=O)C(=O)O)[C@@H](C)O)[C@@H](C)CC)C(C)C)[C@@H](C)CC` [GIP, glucose-dependent insulinotropic polypeptide], the “half-life of intact GIP” value in series [2] (diabetic subjects) was roughly 5.2 min; in [2] (healthy subjects), “approximately 7.3 minutes”.

“Exendin-4 (from UniProt P26349) (ligand)” gave an EC50 (nM), cAMP cell-based agonist assay in series [3] of 0.007 nM.

B1: Peptide No. 22 (peptide)
peptide: [dY]AEGTFTSDYSIQLDKIAQQAFVQWLLAGSGCNTATCATQRLANFLVHSSNNFGPILPPTNVGK([γGlu-γGlu-C(:O)(CH2)nR3])NTY-NH2
modifications: reading uncertain; also: K* n and R3 not given here, acetate salt
Take B1: the “EC50 (nM), cAMP cell-based agonist assay” value turned out to be 5.78 nM in series [4], 15 nM in [5], 16 nM with Human GIP receptor and 42 nM with Human GLP-1 receptor.

B2: Peptide No. 10 (peptide)
peptide: Y[Aib]EGTFTSDYSI[Aib]LDKIAQK([γGlu-γGlu-C(:O)(CH2)nR3])AFVQWLLAGGPSCNTATCATQRLANFLVHSSNNFGPILPPTNVGSNTY-NH2
modifications: reading uncertain; also: K* acyl n and R3 not given here, acetate salt, printed as Y-Aib-E-G-T-F-T-S-D-Y-S-I-Aib-L-D-K-I-A-Q-K*-AFVQWLLAGGPSCNTATCATQRLANFLVHSSNNFGPILPPTNVGSNTY-NH2
Regarding B2, the “EC50 (nM), cAMP cell-based agonist assay” value in [4] amounted to 12.4 nM; in series [5] it was 7 nM; with Human GIP receptor, 0.05 nM; in the series with Human GLP-1 receptor it was 3.87 nM.

B3: (d)YAEGTFTSDYSIALDKIAQQAFVQWLLAGGPSCNTATCVLGRLSQELHRLQTYPRTNTGK*-N-T-Y-NH2 (peptide)
chain: [dY]AEGTFTSDYSIALDKIAQQAFVQWLLAGGPSCNTATCVLGRLSQELHRLQTYPRTNTGKNTY-NH2
modifications: not fully specified (residue 60); also: acyl end R3 and chain length n (12-20) not fixed
notes: K* indicates a linking group, e.g. Lys-γGlu-γGlu—C(═O)(CH2)nR3
For the molecule B3, the “Cumulative Food Intake Reduction Relative to Vehicle (%)” value in series [6] (1st of 4 value columns) is recorded as 20.5±0.86%; in series [6] (2nd of 4 value columns) it was 25.3±1.93%; in series [6] (3rd of 4 value columns), 12.2±4.03%; in series [6] (4th of 4 value columns) it was 2.6±5.68%. The “Blood glucose 30 min” value in series [7] (30 min after injection) came to 140.4 ± 8.41 mg/dL. For the same molecule, the “Blood glucose 120 min” value in [7] (120 min after injection) was 138.4 ± 1.63 mg/dL. Moreover, in series [7] (time 0 (baseline)), the “Blood glucose Time 0” value is 159.6 ± 5.78 mg/dL. In addition, the “Cumulative Food Intake Reduction vs. Vehicle (%) 12 hr.” value in series [8] (cumulative to 12 hr.) was 21.8 +/- 2.62%. Further, the “Cumulative Food Intake Reduction vs. Vehicle (%) 24 hr.” value in [8] (cumulative to 24 hr.) is recorded as 31.8 +/- 2.10%. Besides, the “Cumulative Food Intake Reduction vs. Vehicle (%) 48 hr.” value in [8] (cumulative to 48 hr.) is 32.3 +/- 1.66%. For the same molecule, in series [8] (cumulative to 72 hr.), the “Cumulative Food Intake Reduction vs. Vehicle (%) 72 hr.” value is on record as 28.7 +/- 1.69%. Further, the “Food Intake Reduction by Intervals vs. Vehicle (%) 0-12 hr.” value in series [8] (interval 0-12 hr.) is recorded as 21.8 +/- 2.62%. Moreover, the “Food Intake Reduction by Intervals vs. Vehicle (%) 12-24 hr.” value in [8] (interval 12-24 hr.) is reported as 89.1 +/- 3.69%. In addition, the “Food Intake Reduction by Intervals vs. Vehicle (%) 24-48 hr.” value in series [8] (interval 24-48 hr.) was 32.8 +/- 3.69%. In series [8] (interval 48-72 hr.), the “Food Intake Reduction by Intervals vs. Vehicle (%) 48-72 hr.” value is given as 19.4 +/- 2.31%. The “Body Weight Reduction (G) 24 h” value in series [9] (24 h) is -9.0 ± 1.01 g. In series [9] (48 h), the “Body Weight Reduction (G) 48 h” value is -13.0 ± 0.84 g. The “Body Weight Reduction (G) 72 h” value in series [9] (72 h) is -14.8 ± 1.30 g.

B4: Peptide No. 21 (peptide)
peptide: [dY]AEGTFTSDYSIQLDKIAQQAFVQWLLAGSGCNTATCVLGRLSQELHRLQTYPRTNTGK([γGlu-γGlu-C(:O)(CH2)nR3])NTY-NH2
modifications: reading uncertain; also: K* n and R3 not given here, acetate salt
Take B4: the “EC50 (nM), cAMP cell-based agonist assay” value in [4] is 0.11 nM; in series [5], 1.6 nM; with Human GIP receptor, 20 nM; with Human GLP-1 receptor, 43 nM.

B5: Peptide No. 15 (peptide)
peptide: Y[dA]EGTFTSDYSIALDKIAQQAFVQWLLAGGPSCNTATCVLGRLSQELHRLQTYPRTNTGK([γGlu-γGlu-C(:O)(CH2)nR3])NTY-NH2
modifications: reading uncertain; also: K* n and R3 not given here, acetate salt
Take B5: the “EC50 (nM), cAMP cell-based agonist assay” value is 0.071 nM in series [4], 1.1 nM in series [5], 0.13 nM in the series with Human GIP receptor and 5.2 nM with Human GLP-1 receptor.

B6: Peptide No. 19 (peptide)
peptide: [dY]AEGTFTSDYSIQLDKIAQQAFVQWLLAGGPSCNTATCVLGRLSQELHRLQTYPRTNTGK([γGlu-γGlu-C(:O)(CH2)nR3])NTY-NH2
modifications: reading uncertain; also: K* n and R3 not given here, acetate salt
As for B6, the “EC50 (nM), cAMP cell-based agonist assay” value in series [4] stood at 0.1 nM; in [5], 1.03 nM; in the series with Human GIP receptor, 4.6 nM; with Human GLP-1 receptor it was 8.23 nM.

B7: Peptide No. 17 (peptide)
peptide: [dY]AEGTFTSDYSIALDKIAQQAFVQWLLAGGPSCNTATCVLGRLSQELHRLQTYPRTNTGK([γGlu-γGlu-C(:O)(CH2)nR3])NTY-NH2
modifications: reading uncertain; also: K* n and R3 not given here, acetate salt
As for B7, the “EC50 (nM), cAMP cell-based agonist assay” value in [4] amounted to 0.1 nM; in [5], 1.3 nM; with Human GIP receptor, 0.81 nM; with Human GLP-1 receptor, 5.7 nM.
